{
  "source": "patent US20210388087A1",
  "about": "(Chugai, published 2021)",
  "binders": {"B1": {"name": "CE115HA000 D101G (antibody, human IgG1, kappa, L234A L235A, N297A, name in Kabat numbering)", "heavy": "QVQLVESGGGVVQPGRSLRLSCAASGFTFSNAWMHWVRQAPGKGLEWVAQIKAKSNNYATYYAESVKGRFTISRDDSKNSLYLQMNSLKTEDTAVYYCRYVHYGAYYGVGAWGQGTTVTVSSASTKGPSVFPLAPSSKSTSGGTAALGCLVKDYFPEPVTVSWNSGALTSGVHTFPAVLQSSGLYSLSSVVTVPSSSLGTQTYICNVNHKPSNTKVDKKVEPKSCDKTHTCPPCPAPEAAGGPSVFLFPPKPKDTLMISRTPEVTCVVVDVSHEDPEVKFNWYVDGVEVHNAKTKPREEQYASTYRVVSVLTVLHQDWLNGKEYKCKVSNKALPAPIEKTISKAKGQPREPQVYTLPPSRCELTKNQVSLSCAVKGFYPSDIAVEWESNGQPENNYKTTPPVLDSDGSFFLVSKLTVDKSRWQQGNVFSCSVMHEALHNHYTQKSLSLSPDYKDDDDK", "chain": "EPKSSDKTHTCPPCPAPELLGGPSVFLFPPKPKDTLMISRTPEVTCVVVDVSHEDPEVKFNWYVDGVEVHNAKTKPREEQYNSTYRVVSVLTVLHQDWLNGKEYKCKVSNKALPAPIEKTISKAKGQPREPQVCTLPPSRDELTKNQVSLWCLVKGFYPSDIAVEWESNGQPENNYKTTPPVLDSDGSFFLYSKLTVDKSRWQQGNVFSCSVMHEALHNRYTQKSLSLSP", "light": "DIVMTQSPLSLPVTPGEPASISCRSSQSLVHSNRNTYLHWYQQKPGQAPRLLIYKVSNRFSGVPDRFSGSGSGTDFTLKISRVEAEDVGVYYCGQGTQVPYTFGQGTKLEIKRTVAAPSVFIFPPSDEQLKSGTASVVCLLNNFYPREAKVQWKVDNALQSGNSQESVTEQDSKDSTYSLSSTLTLSKADYEKHKVYACEVTHQGLSSPVTKSFNRGEC", "notes": "one-arm antibody"}, "B2": {"name": "CE115HA000 G65E (antibody, human IgG1, kappa, L234A L235A, N297A, name in Kabat numbering)", "heavy": "B1 heavy with G68E, G110D", "chain": "B1 chain", "light": "B1 light", "notes": "one-arm antibody"}, "B3": {"name": "CE115HA000 D101S (antibody, human IgG1, kappa, L234A L235A, N297A, name in Kabat numbering)", "heavy": "B1 heavy with G110S", "chain": "B1 chain", "light": "B1 light", "notes": "one-arm antibody"}, "B4": {"name": "CE115HA000 D101M (antibody, human IgG1, kappa, L234A L235A, N297A, name in Kabat numbering)", "heavy": "B1 heavy with G110M", "chain": "B1 chain", "light": "B1 light", "notes": "one-arm antibody"}, "B5": {"name": "CE115HA000 D101I (antibody, human IgG1, kappa, L234A L235A, N297A, name in Kabat numbering)", "heavy": "B1 heavy with G110I", "chain": "B1 chain", "light": "B1 light", "notes": "one-arm antibody"}, "B6": {"name": "CE115HA000 D101L (antibody, human IgG1, kappa, L234A L235A, N297A, name in Kabat numbering)", "heavy": "B1 heavy with G110L", "chain": "B1 chain", "light": "B1 light", "notes": "one-arm antibody"}, "B7": {"name": "CE115HA000 G65D (antibody, human IgG1, kappa, L234A L235A, N297A, name in Kabat numbering)", "heavy": "B1 heavy with G68D, G110D", "chain": "B1 chain", "light": "B1 light", "notes": "one-arm antibody"}, "B8": {"name": "CE115HA000 D101R (antibody, human IgG1, kappa, L234A L235A, N297A, name in Kabat numbering)", "heavy": "B1 heavy with G110R", "chain": "B1 chain", "light": "B1 light", "notes": "one-arm antibody"}, "B9": {"name": "CE115HA000 E61D (antibody, human IgG1, kappa, L234A L235A, N297A, name in Kabat numbering)", "heavy": "B1 heavy with E64D, G110D", "chain": "B1 chain", "light": "B1 light", "notes": "one-arm antibody"}, "B10": {"name": "CE115HA000 D101H (antibody, human IgG1, kappa, L234A L235A, N297A, name in Kabat numbering)", "heavy": "B1 heavy with G110H", "chain": "B1 chain", "light": "B1 light", "notes": "one-arm antibody"}, "B11": {"name": "CE115HA000 D101T (antibody, human IgG1, kappa, L234A L235A, N297A, name in Kabat numbering)", "heavy": "B1 heavy with G110T", "chain": "B1 chain", "light": "B1 light", "notes": "one-arm antibody"}, "B12": {"name": "CE115HA000 D101N (antibody, human IgG1, kappa, L234A L235A, N297A, name in Kabat numbering)", "heavy": "B1 heavy with G110N", "chain": "B1 chain", "light": "B1 light", "notes": "one-arm antibody"}, "B13": {"name": "CE115HA000 G98A (antibody, human IgG1, kappa, L234A L235A, N297A, name in Kabat numbering)", "heavy": "B1 heavy with G104A, G110D", "chain": "B1 chain", "light": "B1 light", "notes": "one-arm antibody"}, "B14": {"name": "CE115HA000 E61P (antibody, human IgG1, kappa, L234A L235A, N297A, name in Kabat numbering)", "heavy": "B1 heavy with E64P, G110D", "chain": "B1 chain", "light": "B1 light", "notes": "one-arm antibody"}, "B15": {"name": "CE115HA000 D101Y (antibody, human IgG1, kappa, L234A L235A, N297A, name in Kabat numbering)", "heavy": "B1 heavy with G110Y", "chain": "B1 chain", "light": "B1 light", "notes": "one-arm antibody"}, "B16": {"name": "CE115HA000 D101Q (antibody, human IgG1, kappa, L234A L235A, N297A, name in Kabat numbering)", "heavy": "B1 heavy with G110Q", "chain": "B1 chain", "light": "B1 light", "notes": "one-arm antibody"}, "B17": {"name": "CE115HA000 D101P (antibody, human IgG1, kappa, L234A L235A, N297A, name in Kabat numbering)", "heavy": "B1 heavy with G110P", "chain": "B1 chain", "light": "B1 light", "notes": "one-arm antibody"}, "B18": {"name": "CE115HA000 E61Q (antibody, human IgG1, kappa, L234A L235A, N297A, name in Kabat numbering)", "heavy": "B1 heavy with E64Q, G110D", "chain": "B1 chain", "light": "B1 light", "notes": "one-arm antibody"}, "B19": {"name": "CE115HA000 F29V (antibody, human IgG1, kappa, L234A L235A, N297A, name in Kabat numbering)", "heavy": "B1 heavy with F29V, G110D", "chain": "B1 chain", "light": "B1 light", "notes": "one-arm antibody"}, "B20": {"name": "CE115HA000 D101V (antibody, human IgG1, kappa, L234A L235A, N297A, name in Kabat numbering)", "heavy": "B1 heavy with G110V", "chain": "B1 chain", "light": "B1 light", "notes": "one-arm antibody"}, "B21": {"name": "CE115HA000 D101K (antibody, human IgG1, kappa, L234A L235A, N297A, name in Kabat numbering)", "heavy": "B1 heavy with G110K", "chain": "B1 chain", "light": "B1 light", "notes": "one-arm antibody"}, "B22": {"name": "CE115HA000 E61A (antibody, human IgG1, kappa, L234A L235A, N297A, name in Kabat numbering)", "heavy": "B1 heavy with E64A, G110D", "chain": "B1 chain", "light": "B1 light", "notes": "one-arm antibody"}},
  "note": "Numbering of substitutions follows the chain as printed.",
  "data": [
    {"target": "T1, CD3 epsilon homodimer protein (UniProt P07766 23-126)", "T1 construct": "also called CD3 (CD3 epsilon)", "T1 sequence (P07766 23-126)": "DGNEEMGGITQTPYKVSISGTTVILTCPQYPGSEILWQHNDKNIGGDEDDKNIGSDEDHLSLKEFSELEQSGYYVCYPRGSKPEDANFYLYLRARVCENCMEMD", "assay": "SPR, CD3 epsilon homodimer on chip, one-arm antibody as analyte;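 further: surface plasmon resonance at 25 °C with CD3 epsilon homodimer amine-coupled to a CM4 sensor chip, antibody injected as analyte, HBS-EP+ as running buffer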", "values": [
      {"binder": "B1", "KD ratio (KD of CE115HA000/KD of altered form)": 3.16},
      {"binder": "B2", "KD ratio (KD of CE115HA000/KD of altered form)": 0.61},
      {"binder": "B3", "KD ratio (KD of CE115HA000/KD of altered form)": 0.91},
      {"binder": "B4", "KD ratio (KD of CE115HA000/KD of altered form)": 1.94},
      {"binder": "B5", "KD ratio (KD of CE115HA000/KD of altered form)": 1.73},
      {"binder": "B6", "KD ratio (KD of CE115HA000/KD of altered form)": 0.71},
      {"binder": "B7", "KD ratio (KD of CE115HA000/KD of altered form)": 0.61},
      {"binder": "B8", "KD ratio (KD of CE115HA000/KD of altered form)": 5.56},
      {"binder": "B9", "KD ratio (KD of CE115HA000/KD of altered form)": 0.9},
      {"binder": "B10", "KD ratio (KD of CE115HA000/KD of altered form)": 0.91},
      {"binder": "B11", "KD ratio (KD of CE115HA000/KD of altered form)": 0.62},
      {"binder": "B12", "KD ratio (KD of CE115HA000/KD of altered form)": 2.28},
      {"binder": "B13", "KD ratio (KD of CE115HA000/KD of altered form)": 0.98},
      {"binder": "B14", "KD ratio (KD of CE115HA000/KD of altered form)": 0.82},
      {"binder": "B15", "KD ratio (KD of CE115HA000/KD of altered form)": 0.97},
      {"binder": "B16", "KD ratio (KD of CE115HA000/KD of altered form)": 3.55},
      {"binder": "B17", "KD ratio (KD of CE115HA000/KD of altered form)": 43.4},
      {"binder": "B18", "KD ratio (KD of CE115HA000/KD of altered form)": 0.65},
      {"binder": "B19", "KD ratio (KD of CE115HA000/KD of altered form)": 2.94},
      {"binder": "B20", "KD ratio (KD of CE115HA000/KD of altered form)": 1.18},
      {"binder": "B21", "KD ratio (KD of CE115HA000/KD of altered form)": 4.37},
      {"binder": "B22", "KD ratio (KD of CE115HA000/KD of altered form)": 0.94}
    ]}
  ]
}
